Test results: PMC7718258

Experiments:
[1] = target: T1, mjCgi121;mjBud32;mjKae1;pfPcc1 (Methanocaldococcus jannaschii;Methanocaldococcus jannaschii;Methanocaldococcus jannaschii;Pyrococcus furiosus) (UniProt Q57646+Q58530+Q58530+Q9V1Z9); assay: fluorescence polarization; conditions: 20 mM HEPES pH 7.5, 100 mM NaCl, 2 mM DTT; filter binding 50 nM 32P-tRNA, 1 h, room temperature; FP 50 nM 647-CCA; NMR 25 C with 10% D2O
T1 sequence 1: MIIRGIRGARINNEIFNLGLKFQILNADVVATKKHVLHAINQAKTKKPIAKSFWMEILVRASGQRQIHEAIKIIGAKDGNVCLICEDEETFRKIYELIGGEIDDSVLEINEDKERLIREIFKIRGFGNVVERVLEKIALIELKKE
T1 sequence 2: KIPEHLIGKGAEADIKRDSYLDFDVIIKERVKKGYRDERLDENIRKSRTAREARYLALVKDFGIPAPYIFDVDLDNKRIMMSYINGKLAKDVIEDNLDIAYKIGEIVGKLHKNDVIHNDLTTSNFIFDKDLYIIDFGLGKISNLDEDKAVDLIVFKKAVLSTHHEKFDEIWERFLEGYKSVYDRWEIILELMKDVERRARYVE
T1 sequence 3: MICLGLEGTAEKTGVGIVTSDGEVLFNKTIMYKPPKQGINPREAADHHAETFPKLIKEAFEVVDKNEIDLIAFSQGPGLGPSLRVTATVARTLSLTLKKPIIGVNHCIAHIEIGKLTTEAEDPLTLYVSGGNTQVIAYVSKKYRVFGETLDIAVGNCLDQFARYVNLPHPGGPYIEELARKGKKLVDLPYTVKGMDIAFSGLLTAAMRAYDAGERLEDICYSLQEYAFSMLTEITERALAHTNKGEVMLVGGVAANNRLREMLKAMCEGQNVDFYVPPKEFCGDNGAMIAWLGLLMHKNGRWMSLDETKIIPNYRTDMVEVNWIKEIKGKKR
T1 sequence 4: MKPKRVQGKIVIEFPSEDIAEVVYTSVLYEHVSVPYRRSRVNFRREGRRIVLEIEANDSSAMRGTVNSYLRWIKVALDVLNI

[2] = target: mjCgi121;mjBud32 R60E (Methanocaldococcus jannaschii;Methanocaldococcus jannaschii) (UniProt Q57646); assay: competition; conditions: displacement of 647-CCA (FP), 0.8 uM protein; 20 mM HEPES pH 7.5, 100 mM NaCl, 2 mM DTT; filter binding 50 nM 32P-tRNA, 1 h, room temperature; FP 50 nM 647-CCA; NMR 25 C with 10% D2O
[3] = target: mjCgi121;mjBud32 E152R (Methanocaldococcus jannaschii;Methanocaldococcus jannaschii) (UniProt Q57646); assay: competition; conditions: displacement of 647-CCA (FP), 0.8 uM protein; 20 mM HEPES pH 7.5, 100 mM NaCl, 2 mM DTT; filter binding 50 nM 32P-tRNA, 1 h, room temperature; FP 50 nM 647-CCA; NMR 25 C with 10% D2O
[4] = target: T2, mjCgi121;mjBud32 (Methanocaldococcus jannaschii;Methanocaldococcus jannaschii) (UniProt Q57646+Q58530); assay: competition; conditions: displacement of 647-CCA (FP), 0.8 uM protein; 20 mM HEPES pH 7.5, 100 mM NaCl, 2 mM DTT; filter binding 50 nM 32P-tRNA, 1 h, room temperature; FP 50 nM 647-CCA; NMR 25 C with 10% D2O
T2 sequence 1: T1 sequence 1
T2 sequence 2: T1 sequence 2

[5] = target: T3, mjCgi121 (Methanocaldococcus jannaschii) (UniProt Q57646); assay: competition; conditions: displacement of 647-CCA (FP); 20 mM HEPES pH 7.5, 100 mM NaCl, 2 mM DTT; filter binding 50 nM 32P-tRNA, 1 h, room temperature; FP 50 nM 647-CCA; NMR 25 C with 10% D2O
T3 sequence: T1 sequence 1

Q: For CCGCCA [647-CCA], which Kd [1] is on record?
A: The Kd was 263 nM.

Q: Which results are given for mjtRNALysUUU?
A: IC50 [2]: 7600 nM; IC50 [3]: 600 nM; IC50 [4]: 1200 nM

Q: mjtRNAValCAC was tested. Which binding signal (fold less efficient than mjtRNALys) [5] did it give?
A: The binding signal (fold less efficient than mjtRNALys) was 7.3.
